Measured values from patent US20240141045A1 (PRECIGEN, published 2024).

T1: TGF-β3 (UniProt P10600 301-412)
T1 sequence (looked up): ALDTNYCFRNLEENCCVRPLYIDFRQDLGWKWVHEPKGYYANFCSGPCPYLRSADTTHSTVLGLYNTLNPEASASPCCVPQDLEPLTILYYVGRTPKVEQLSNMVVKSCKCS

B1: Anti-PD1 (nVL1-nVH3).IgG4-TGFbRII (antibody)
heavy: QVQLVESGGGVVQPGRSLRLDCKASGITFSNSGMHWVRQAPGKGLEWVAVIWYDGSKRYYADSVKGRFTISRDNSKNTLFLQMNSLRAEDTAVYYCATNNDYWGQGTLVTVSSASTKGPSVFPLAPCSRSTSESTAALGCLVKDYFPEPVTVSWNSGALTSGVHTFPAVLQSSGLYSLSSVVTVPSSSLGTKTYTCNVDHKPSNTKVDKRVESKYGPPCPSCPAPEFLGGPSVFLFPPKPKDTLMISRTPEVTCVVVDVSQEDPEVQFNWYVDGVEVHNAKTKPREEQFNSTYRVVSVLTVLHQDWLNGKEYKCKVSNKGLPSSIEKTISKAKGQPREPQVYTLPPSQEEMTKNQVSLTCLVKGFYPSDIAVEWESNGQPENNYKTTPPVLDSDGSFFLYSRLTVDKSRWQEGNVFSCSVMHEALHNHYTQKSLSLSPGKGGGGSGGGGSIPPHVQKSVNNDMIVTDNNGAVKFPQLCKFCDVRFSTCDNQKSCMSNCSITSICEKPQEVCVAVWRKNDENITLETVCHDPKLPYHDFILEDAASPKCIMKEKKKPGETFFMCSCSSDECNDNIIFSEEYNTSNPD
light: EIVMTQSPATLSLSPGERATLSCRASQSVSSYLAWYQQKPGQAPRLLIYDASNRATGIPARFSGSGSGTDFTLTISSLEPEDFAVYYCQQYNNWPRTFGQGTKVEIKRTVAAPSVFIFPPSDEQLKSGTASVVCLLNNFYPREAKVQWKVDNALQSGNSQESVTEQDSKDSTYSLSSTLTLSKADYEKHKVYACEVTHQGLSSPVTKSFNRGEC
B2: Anti-PD1 (nVL1-nVH7).IgG4-TGFbRII (antibody)
heavy: QVQLVESGGGVVQPGRSLRLDCKASGFTFSNSGMHWVRQAPGKGLEWVAVIWYDGSKRYYADSVKGRFTISRDNSKNTLFLQMNSLRAEDTAVYYCATNNDYWGQGTLVTVSSASTKGPSVFPLAPCSRSTSESTAALGCLVKDYFPEPVTVSWNSGALTSGVHTFPAVLQSSGLYSLSSVVTVPSSSLGTKTYTCNVDHKPSNTKVDKRVESKYGPPCPSCPAPEFLGGPSVFLFPPKPKDTLMISRTPEVTCVVVDVSQEDPEVQFNWYVDGVEVHNAKTKPREEQFNSTYRVVSVLTVLHQDWLNGKEYKCKVSNKGLPSSIEKTISKAKGQPREPQVYTLPPSQEEMTKNQVSLTCLVKGFYPSDIAVEWESNGQPENNYKTTPPVLDSDGSFFLYSRLTVDKSRWQEGNVFSCSVMHEALHNHYTQKSLSLSPGKGGGGSGGGGSIPPHVQKSVNNDMIVTDNNGAVKFPQLCKFCDVRFSTCDNQKSCMSNCSITSICEKPQEVCVAVWRKNDENITLETVCHDPKLPYHDFILEDAASPKCIMKEKKKPGETFFMCSCSSDECNDNIIFSEEYNTSNPD
light: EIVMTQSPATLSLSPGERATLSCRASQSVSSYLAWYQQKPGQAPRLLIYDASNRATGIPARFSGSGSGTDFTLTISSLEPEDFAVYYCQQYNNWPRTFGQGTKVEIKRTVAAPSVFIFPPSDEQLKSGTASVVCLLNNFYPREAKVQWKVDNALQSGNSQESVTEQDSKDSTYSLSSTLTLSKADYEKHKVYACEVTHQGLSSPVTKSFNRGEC
B3: Anti-PD1 (nVL1-nVH8).IgG4-TGFbRII (antibody)
heavy: EVQLVQSGGGVVQPGRSLRLSCAASGFTFSSYGMHWVRQAPGKGLEWVAVIWYDGSNKYYADSVKGRFTISRDNSKNTLYLQMNSLRAEDTAVYYCATNNDYWGQGTLVTVSSASTKGPSVFPLAPCSRSTSESTAALGCLVKDYFPEPVTVSWNSGALTSGVHTFPAVLQSSGLYSLSSVVTVPSSSLGTKTYTCNVDHKPSNTKVDKRVESKYGPPCPSCPAPEFLGGPSVFLFPPKPKDTLMISRTPEVTCVVVDVSQEDPEVQFNWYVDGVEVHNAKTKPREEQFNSTYRVVSVLTVLHQDWLNGKEYKCKVSNKGLPSSIEKTISKAKGQPREPQVYTLPPSQEEMTKNQVSLTCLVKGFYPSDIAVEWESNGQPENNYKTTPPVLDSDGSFFLYSRLTVDKSRWQEGNVFSCSVMHEALHNHYTQKSLSLSPGKGGGGSGGGGSIPPHVQKSVNNDMIVTDNNGAVKFPQLCKFCDVRFSTCDNQKSCMSNCSITSICEKPQEVCVAVWRKNDENITLETVCHDPKLPYHDFILEDAASPKCIMKEKKKPGETFFMCSCSSDECNDNIIFSEEYNTSNPD
light: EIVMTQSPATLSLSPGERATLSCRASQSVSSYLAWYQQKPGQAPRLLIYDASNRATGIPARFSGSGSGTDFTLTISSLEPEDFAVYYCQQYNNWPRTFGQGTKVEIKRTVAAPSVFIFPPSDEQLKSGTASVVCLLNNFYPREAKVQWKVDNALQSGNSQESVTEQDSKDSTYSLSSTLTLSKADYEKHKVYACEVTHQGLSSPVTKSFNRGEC
B4: Anti-PD1(VH6-VL5) IgG1-TGFβRII (antibody)
VH: QVQLVESGGGVVQPGRSLRLDCKASGITFSNSGMHWVRQAPGKGLEWVAVIWYDGSKRYYADSVKGRFTISRDNSKNTLFLQMNSLRAEDTAVYYCATNDDYWGQGTLVTVSS
VL: EIVLTQSPATLSLSPGERATLSCRASQSVSSYLAWYQQKPGQAPRLLIYDASNRATGIPARFSGSGSGTDFTLTISSLEPEDFAVYYCQQSSNWPRTFGQGTKVEIK
chain: GGGGSGGGGSIPPHVQKSVNNDMIVTDNNGAVKFPQLCKFCDVRFSTCDNQKSCMSNCSITSICEKPQEVCVAVWRKNDENITLETVCHDPKLPYHDFILEDAASPKCIMKEKKKPGETFFMCSCSSDECNDNIIFSEEYNTSNPD
notes: not shown: light-chain constant region (not tied to the IgG1 format); copies: 2 + 2 + 2
B5: Anti-PD1 (VH6-VL5) IgG1-ADA2 (antibody)
heavy (part 1 of 2): QVQLVESGGGVVQPGRSLRLDCKASGITFSNSGMHWVRQAPGKGLEWVAVIWYDGSKRYYADSVKGRFTISRDNSKNTLFLQMNSLRAEDTAVYYCATNDDYWGQGTLVTVSS
heavy (part 2 of 2): GGGGSGGGGSSIDETRAHLLLKEKMMRLGGRLVLNTKEELANERLMTLKIAEMKEAMRTLIFPPSMHFFQAKHLIERSQVFNILRMMPKGAALHLHDIGIVTMDWLVRNVTYRPHCHICFTPRGIMQFRFAHPTPRPSEKCSKWILLEDYRKRVQNVTEFDDSLLRNFTLVTQHPEVIYTNQNVVWSKFETIFFTISGLIHYAPVFRDYVFRSMQEFYEDNVLYMEIRARLLPVYELSGEHHDEEWSVKTYQEVAQKFVETHPEFIGIKIIYSDHRSKDVAVIAESIRMAMGLRIKFPTVVAGFDLVGHEDTGHSLHDYKEALMIPAKDGVKLPYFFHAGETDWQGTSIDRNILDALMLNTTRIGHGFALSKHPAVRTYSWKKDIPIEVCPISNQVLKLVSDLRNHPVATLMATGHPMVISSDDPAMFGAKGLSYDFYEVFMGIGGMKADLRTLKQLAMNSIKYSTLLESEKNTFMEIWKKRWDKFIADVATK
light: EIVLTQSPATLSLSPGERATLSCRASQSVSSYLAWYQQKPGQAPRLLIYDASNRATGIPARFSGSGSGTDFTLTISSLEPEDFAVYYCQQSSNWPRTFGQGTKVEIK
notes: also called anti-PD1 (VH6/VL5) hIgG1-ADA2; not shown: IgG1 (hIgG1) heavy chain constant region; light chain constant region
B6: Anti-PD1(VH7-VL6) scFv-TGFβRII (scFv)
chain 1: QVQLVQSGVEVKKPGASVKVSCKASGYTFTNYYMYWVRQAPGQGLEWMGGINPSNGGTNFNEKFKNRVTLTTDSSTTTAYMELKSLQFDDTAVYYCARRDYRFDMGFDYWGQGTTVTVSS
chain 2: EIVLTQSPATLSLSPGERATLSCRASKGVSTSGYSYLHWYQQKPGQAPRLLIYLASYLESGVPARFSGSGSGTDFTLTISSLEPEDFAVYYCQHSRDLPLTFGGGTKVEIK
chain 3: GGGGSGGGGSIPPHVQKSVNNDMIVTDNNGAVKFPQLCKFCDVRFSTCDNQKSCMSNCSITSICEKPQEVCVAVWRKNDENITLETVCHDPKLPYHDFILEDAASPKCIMKEKKKPGETFFMCSCSSDECNDNIIFSEEYNTSNPD
B7: Anti-PD1(VH6-VL5) scFv-TGFβRII (scFv)
chain 1: QVQLVESGGGVVQPGRSLRLDCKASGITFSNSGMHWVRQAPGKGLEWVAVIWYDGSKRYYADSVKGRFTISRDNSKNTLFLQMNSLRAEDTAVYYCATNDDYWGQGTLVTVSS
chain 2: EIVLTQSPATLSLSPGERATLSCRASQSVSSYLAWYQQKPGQAPRLLIYDASNRATGIPARFSGSGSGTDFTLTISSLEPEDFAVYYCQQSSNWPRTFGQGTKVEIK
chain 3: GGGGSGGGGSIPPHVQKSVNNDMIVTDNNGAVKFPQLCKFCDVRFSTCDNQKSCMSNCSITSICEKPQEVCVAVWRKNDENITLETVCHDPKLPYHDFILEDAASPKCIMKEKKKPGETFFMCSCSSDECNDNIIFSEEYNTSNPD

What was measured:
[1] = target: T2, PD-1 Fc fusion protein (UniProt Q15116 25-167, limits assumed); assay: SPR (Biacore), PD1-Fc immobilised on CM5, 1:1 Langmuir model with mass transfer
T2 construct: Antigen immobilised on the CM5 chip in all PD-1 SPR assays; also called PD-1 fused to human Fc region; PD-1-Fc antigen; not shown: human Fc region
T2 sequence (Q15116 25-167 limits assumed): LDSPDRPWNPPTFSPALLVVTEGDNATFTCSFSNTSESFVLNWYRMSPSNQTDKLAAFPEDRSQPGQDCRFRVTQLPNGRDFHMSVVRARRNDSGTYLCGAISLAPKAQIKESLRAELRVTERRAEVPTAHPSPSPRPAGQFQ
Procedure: PD1-Fc antigen and reference antigen was immobilized on Biacore CM5 surface. […] Kinetics data was evaluated for 1:1 model: Langmuir with mass transfer.

[2] = target: T3, TGF-β1 (UniProt P01137 279-390); assay: cell-based or functional assay
T3 sequence (P01137 279-390 limits assumed): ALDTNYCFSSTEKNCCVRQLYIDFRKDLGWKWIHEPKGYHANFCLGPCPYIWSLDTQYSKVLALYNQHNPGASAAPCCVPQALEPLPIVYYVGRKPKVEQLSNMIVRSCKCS

[3] = target: T2, PD-1 Fc fusion protein; assay: SPR (Biacore 3000), PD-1 Fc immobilised on CM5 chip, fusion protein injected
Procedure: Surface plasma resonance (SPR) analysis was performed using Biacore3000, CM5 chip, an amine-coupling kit, 10×HBS-P running buffer and Glycine for regeneration (GE Healthcare). […] Dissociation was allowed to proceed followed by a pulse of 10 mM Glycine (pH 1.5) for regeneration of the chip surface.

[4] = target: T4, PD-1 (programmed cell death protein 1), on cells (UniProt Q15116 25-288, limits assumed); assay: cell-based or functional assay
T4 sequence (Q15116 25-288 limits assumed): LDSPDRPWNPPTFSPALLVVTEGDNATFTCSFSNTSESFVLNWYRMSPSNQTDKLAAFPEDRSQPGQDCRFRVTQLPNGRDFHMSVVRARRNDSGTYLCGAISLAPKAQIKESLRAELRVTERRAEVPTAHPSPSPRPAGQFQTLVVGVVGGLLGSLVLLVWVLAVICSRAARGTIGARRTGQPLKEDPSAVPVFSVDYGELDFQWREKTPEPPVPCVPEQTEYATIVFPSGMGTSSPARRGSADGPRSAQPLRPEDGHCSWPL

[5] = target: T3, TGF-β1; assay: cell-based or functional assay; remark: listed apart in the source
[6] = target: T1, TGF-β3; assay: cell-based or functional assay
[7] = target: T2, PD-1 Fc fusion protein; assay: SPR (Biacore 3000), recombinant PD-1 Fc immobilised on CM5 chip, fusion protein injected
Procedure: Surface plasma resonance (SPR) analysis was performed using Biacore3000, CM5 chip, an amine-coupling kit, 10×HBS-P running buffer and Glycine for. […] Dissociation was allowed to proceed followed by regeneration of the chip surface.

[8] = target: T4, PD-1 (programmed cell death protein 1), …; assay: cell-based or functional assay; remark: listed apart in the source

| Binder | Kd [1] [nM] | IC50, inhibition of TGF-β1 induced reporter gene activity (HEK-Blue TGF-β cells, SEAP) [2] [pM] | Kd [3] [nM] | also measured |
| --- | --- | --- | --- | --- |
| B1 | 0.0277 | 10.7 | – | – |
| B2 | 0.147 | 15.1 | – | – |
| B3 | 0.321 | 54.5 | – | – |
| B4 | – | – | 0.00764 | IC50; PD-1/PD-L1 blockade bioassay (PD-1 effector cells with PD-L1 aAPC/CHO-K1 cells, luciferase RLU) [4]: 9.5 nM; IC50; neutralisation of TGF-β1 signalling, HEK-Blue TGF-β reporter cells (SEAP, absorbance 620 nM) [5]: 12.7 pM; IC50; neutralisation of TGF-β3 signalling, HEK-Blue TGF-β reporter cells (SEAP, absorbance 620 nM) [6]: 5.3 pM |
| B5 | – | – | – | Kd [7]: 0.309 pM; EC50 (read off the curve); PD-1/PD-L1 blockade reporter bioassay (luciferase RLU) [8]: ~600 ng/mL |
| B6 | – | – | 7.77 | – |
| B7 | – | – | 19.7 | – |
